Data published in article PMC3463608.

Molecular target: His-tagged exomer complex (S. cerevisiae) (UniProt Q12114)
Assay: pull-down; His-exomer complex immobilized on Ni-NTA beads, incubated with 150 ug/ml purified GST-Chs3 fragments at RT for 30 min; washes with B88G + 1% Tween 20 and B88G; SDS-PAGE and Coomassie staining; bound fragment quantified, normalized to Chs5p in the lane and to the wt pull-down; two independent experiments

level of binding, % of wt: 62 to 63 % of wt
B1: GST-Chs3 (1–170) D19AE21A (domain or fragment)
chain: MTGLNGDDPDDYYLNLNQAEASLLRSRHSVGSGAPHRQGSLVRPERSRLNNPDNPHFYYAQKTQEQMNHLDVLPSSTGVNPNATRRSGSLRSKGSVRSKFSGRETDSYLLQDMNTTDKKASVKISDEGVAEDEFDKDGDVDNFEESSTQPINKSIKPLRKETNDTLSFWQ
